Experimental data: PMC3814758, “The Geminin and Idas Coiled Coils Preferentially Form a Heterodimer That Inhibits Geminin Function in DNA Replication Licensing*” (The Journal of Biological Chemistry, 2013)
Each block holds one binder with its values, some of them ahead of it.

Legend:
[1] = molecular target: the molecule itself; experiment: SAXS; purified complexes at three concentrations each (0.5, 1.0, 2.5 mg/ml tGeminin-tGeminin; 1.0, 2.0, 6.0 mg/ml tIdas-tIdas and tIdas-tGeminin); X13 beamline, EMBL-Hamburg; Guinier plot and distance distribution
Cdt1 (115-353) [2] = molecular target: Cdt1 (115-353) (UniProt Q9H211); experiment: ITC; 25 °C; 25 mM HEPES/NaOH pH 7.5, 150 mM NaCl, 0.5 mM Tris(2-carboxyethyl)phosphine; 28 injections of 10 μl of the protein dimers (2-80 μM) into 1.4 ml of Cdt1 (0.2-10 μM)
Cdt1 (115-353) [3] = molecular target: Cdt1 (115-353) (UniProt Q9H211)
Cdt1 (115-353) [4] = molecular target: T1, Cdt1 (115-353) (UniProt Q9H211 115-353); experiment: ITC
T1 chain: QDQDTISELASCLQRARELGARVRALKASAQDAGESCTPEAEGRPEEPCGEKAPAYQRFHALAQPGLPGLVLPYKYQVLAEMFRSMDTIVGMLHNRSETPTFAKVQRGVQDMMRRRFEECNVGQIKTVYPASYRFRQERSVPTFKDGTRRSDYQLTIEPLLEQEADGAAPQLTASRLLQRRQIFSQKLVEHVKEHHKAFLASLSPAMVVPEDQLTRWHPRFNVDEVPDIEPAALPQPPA

Cdt1 (115-353) [5] = molecular target: T2, Cdt1 (115-353) (UniProt Q9H211 115-353); experiment: cell-based or functional assay
T2 sequence (looked up): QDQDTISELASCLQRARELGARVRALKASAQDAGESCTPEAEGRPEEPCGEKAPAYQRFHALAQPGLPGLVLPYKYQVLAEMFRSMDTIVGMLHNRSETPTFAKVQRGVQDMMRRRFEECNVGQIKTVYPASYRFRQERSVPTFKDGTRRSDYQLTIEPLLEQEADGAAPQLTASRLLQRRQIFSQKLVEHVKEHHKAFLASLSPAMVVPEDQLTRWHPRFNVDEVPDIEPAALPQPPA

Cdt1 (115-353) [6] = molecular target: T2, Cdt1 (115-353); experiment: ITC; 25 °C; 25 mM HEPES/NaOH pH 7.5, 150 mM NaCl, 0.5 mM Tris(2-carboxyethyl)phosphine; 28 injections of 10 μl of the protein dimers (2-80 μM) into 1.4 ml of Cdt1 (0.2-10 μM); conditions: both partners purified

B1: tIdas, coiled-coil domain of Idas (residues 173-245) (domain or fragment, UniProt D6RGH6 173-245, looked up)
chain: PDVPPPEQYWKEVADQNQRALGDALVENNQLHVTLTQKQEEIASLKERNVQLKELASRTRHLASVLDKLMITQ
notes: Idas (Multicilin), residues 173-245 (coiled-coil construct tIdas); Single chain, used for the rows of tIdas with itself and with tGeminin; Cleavable His tag; also called Multicilin; source: expressed on its own, or co-expressed with Geminin in Escherichia coli; purified
stoichiometry N [1]: 2

Kd (Cdt1 (115-353) [2]): 3.5 nM
IC50 of inhibition of replication licensing and DNA replication of sperm DNA in Xenopus egg extract (Cdt1 of the extract), increasing concentrations of the dimer (Cdt1 (115-353) [3]): 50 nM
Kd (Cdt1 (115-353) [4]): 2.6 nM
B2: tGeminin-tGeminin homodimer (complex)
chain: TQESFDLMIKENPSSQYWKEVAEKRRKALYEALKENEKLHKEIEQKDNEIARLKKENKELAEVAEHVQYMAELIERLNG

IC50 of inhibition of replication licensing and DNA replication of sperm DNA in Xenopus egg extract (Cdt1 of the extract), increasing concentrations of the dimer (Cdt1 (115-353) [5]): ~720 nM
Kd (Cdt1 (115-353) [6]): ~35 nM
dH less favourable than for tGeminin-tGeminin binding to Cdt1 (Cdt1 (115-353) [6]): 21.1 kcal/mol
B3: tIdas-tGeminin heterodimer (complex)
chain 1: PDVPPPEQYWKEVADQNQRALGDALVENNQLHVTLTQKQEEIASLKERNVQLKELASRTRHLASVLDKLMITQ
chain 2: TQESFDLMIKENPSSQYWKEVAEKRRKALYEALKENEKLHKEIEQKDNEIARLKKENKELAEVAEHVQYMAELIERLNG
notes: Idas (Multicilin), residues 173-245; Geminin, human, residues 82-160; Preformed heterodimer; also called tGeminin-tIdas; Idas-Geminin heterodimer; source: co-expression in Escherichia coli, purified (IMAC by the His tag on Idas, size exclusion chromatography); copies: 1 + 1

B4: tGeminin, coiled-coil domain of Geminin (residues 82-160) (domain or fragment, human, UniProt O75496 82-160, looked up)
chain: TQESFDLMIKENPSSQYWKEVAEKRRKALYEALKENEKLHKEIEQKDNEIARLKKENKELAEVAEHVQYMAELIERLNG
notes: Geminin, human, residues 82-160 (coiled-coil construct tGeminin); Single chain, used for the rows of tGeminin with itself and with tIdas; Cloned both with a cleavable His tag and without tag; In the co-expressed complex the tag was on Idas; source: expressed on its own, or co-expressed with Idas in Escherichia coli; purified
stoichiometry N [1]: 2
